B1: BBSome complex member BBS5 (Homo sapiens), Q8N3I7 (parent)
chain: MSVLDALWEDRDVRFDLSAQQMKTRPGEVLIDCLDSIEDTKGNNGDRGRLLVTNLRILWHSLALSRVNVSVGYNCILNITTRTANSKLRGQTEALYILTKCNSTRFEFIFTNLVPGSPRLFTSVMAVHRAYETSKMYRDFKLRSALIQNKQLRLLPQEHVYDKINGVWNLSSDQGNLGTFFITNVRIVWHANMNDSFNVSIPYLQIRSIKIRDSKFGLALVIESSQQSGGYVLGFKIDPVEKLQESVKEINSLHKVYSASPIFGVDYEMEEKPQPLEALTVEQIQDDVEIDSDGHTDAFVAYFADGNKQQDREPVFSEELGLAIEKLKDGFTLQGLWEVMS
partner: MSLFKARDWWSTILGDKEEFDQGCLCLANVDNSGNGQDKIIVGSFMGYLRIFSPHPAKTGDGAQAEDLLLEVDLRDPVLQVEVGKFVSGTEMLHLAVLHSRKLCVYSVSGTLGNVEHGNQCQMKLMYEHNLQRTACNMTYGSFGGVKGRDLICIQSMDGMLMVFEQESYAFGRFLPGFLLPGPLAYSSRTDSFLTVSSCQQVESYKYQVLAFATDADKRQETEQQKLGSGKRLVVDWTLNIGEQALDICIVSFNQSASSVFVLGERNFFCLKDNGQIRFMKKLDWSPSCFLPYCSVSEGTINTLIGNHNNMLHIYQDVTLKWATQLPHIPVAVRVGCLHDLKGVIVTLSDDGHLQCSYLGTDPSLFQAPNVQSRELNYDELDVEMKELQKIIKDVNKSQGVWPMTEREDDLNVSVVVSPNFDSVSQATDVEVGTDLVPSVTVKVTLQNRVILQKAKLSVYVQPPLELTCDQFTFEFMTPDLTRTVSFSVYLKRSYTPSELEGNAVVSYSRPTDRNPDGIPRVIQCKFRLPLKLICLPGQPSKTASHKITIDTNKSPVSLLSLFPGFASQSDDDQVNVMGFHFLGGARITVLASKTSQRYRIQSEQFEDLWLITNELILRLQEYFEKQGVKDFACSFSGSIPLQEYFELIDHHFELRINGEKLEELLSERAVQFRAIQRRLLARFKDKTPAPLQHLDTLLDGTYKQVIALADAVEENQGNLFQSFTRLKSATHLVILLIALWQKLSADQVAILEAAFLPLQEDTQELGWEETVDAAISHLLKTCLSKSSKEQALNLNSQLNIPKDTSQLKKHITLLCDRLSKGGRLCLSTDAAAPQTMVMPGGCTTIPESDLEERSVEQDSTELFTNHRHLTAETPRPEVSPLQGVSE

Variants of: B1
Settings: with pthb1_human BBS9, Q3SYG4

Row | Variant | effect of a mutation on the interaction
1 | MSVLDALWEDRDVRFDLSEQQMKTRPGEVLIDCLDSIEDTKGNNGDRGRLLVTNLRILWHSLALSRVNVSVGYNCILNITTRTANSKLRGQTEALYILTKCNSTRFEFIFTNLVPGSPRLFTSVMAVHRAYETSKMYRDFKLRSALIQNKQLRLLPQEHVYDKINGVWNLSSDQGNLGTFFITNVRIVWHANMNDSFNVSIPYLQIRSIKIRDSKFGLALVIESSQQSGGYVLGFKIDPVEKLQESVKEINSLHKVYSASPIFGVDYEMEEKPQPLEALTVEQIQDDVEIDSDGHTDAFVAYFADGNKQQDREPVFSEELGLAIEKLKDGFTLQGLWEVMS [A19E] | with no effect
2 | MSVLDALWEDRDVRFDLSAAQMKTRPGEVLIDCLDSIEDTKGNNGDRGRLLVTNLRILWHSLALSRVNVSVGYNCILNITTRTANSKLRGQTEALYILTKCNSTRFEFIFTNLVPGSPRLFTSVMAVHRAYETSKMYRDFKLRSALIQNKQLRLLPQEHVYDKINGVWNLSSDQGNLGTFFITNVRIVWHANMNDSFNVSIPYLQIRSIKIRDSKFGLALVIESSQQSGGYVLGFKIDPVEKLQESVKEINSLHKVYSASPIFGVDYEMEEKPQPLEALTVEQIQDDVEIDSDGHTDAFVAYFADGNKQQDREPVFSEELGLAIEKLKDGFTLQGLWEVMS [Q20A] | disrupting interaction strength
3 | MSVLDALWEDRDVRFDLSAEQMKTRPGEVLIDCLDSIEDTKGNNGDRGRLLVTNLRILWHSLALSRVNVSVGYNCILNITTRTANSKLRGQTEALYILTKCNSTRFEFIFTNLVPGSPRLFTSVMAVHRAYETSKMYRDFKLRSALIQNKQLRLLPQEHVYDKINGVWNLSSDQGNLGTFFITNVRIVWHANMNDSFNVSIPYLQIRSIKIRDSKFGLALVIESSQQSGGYVLGFKIDPVEKLQESVKEINSLHKVYSASPIFGVDYEMEEKPQPLEALTVEQIQDDVEIDSDGHTDAFVAYFADGNKQQDREPVFSEELGLAIEKLKDGFTLQGLWEVMS [Q20E] | with no effect
4 | MSVLDALWEDRDVRLDLSAQQMKTRPGEVLIDCLDSIEDTKGNNGDRGRLLVTNLRILWHSLALSRVNVSVGYNCILNITTRTANSKLRGQTEALYILTKCNSTRFEFIFTNLVPGSPRLFTSVMAVHRAYETSKMYRDFKLRSALIQNKQLRLLPQEHVYDKINGVWNLSSDQGNLGTFFITNVRIVWHANMNDSFNVSIPYLQIRSIKIRDSKFGLALVIESSQQSGGYVLGFKIDPVEKLQESVKEINSLHKVYSASPIFGVDYEMEEKPQPLEALTVEQIQDDVEIDSDGHTDAFVAYFADGNKQQDREPVFSEELGLAIEKLKDGFTLQGLWEVMS [F15L] | disrupting interaction strength
5 | MSVLDALWEDRDVRKDLSAQQMKTRPGEVLIDCLDSIEDTKGNNGDRGRLLVTNLRILWHSLALSRVNVSVGYNCILNITTRTANSKLRGQTEALYILTKCNSTRFEFIFTNLVPGSPRLFTSVMAVHRAYETSKMYRDFKLRSALIQNKQLRLLPQEHVYDKINGVWNLSSDQGNLGTFFITNVRIVWHANMNDSFNVSIPYLQIRSIKIRDSKFGLALVIESSQQSGGYVLGFKIDPVEKLQESVKEINSLHKVYSASPIFGVDYEMEEKPQPLEALTVEQIQDDVEIDSDGHTDAFVAYFADGNKQQDREPVFSEELGLAIEKLKDGFTLQGLWEVMS [F15K] | with no effect
6 | MSVLDALWEDRDVRFALSAQQMKTRPGEVLIDCLDSIEDTKGNNGDRGRLLVTNLRILWHSLALSRVNVSVGYNCILNITTRTANSKLRGQTEALYILTKCNSTRFEFIFTNLVPGSPRLFTSVMAVHRAYETSKMYRDFKLRSALIQNKQLRLLPQEHVYDKINGVWNLSSDQGNLGTFFITNVRIVWHANMNDSFNVSIPYLQIRSIKIRDSKFGLALVIESSQQSGGYVLGFKIDPVEKLQESVKEINSLHKVYSASPIFGVDYEMEEKPQPLEALTVEQIQDDVEIDSDGHTDAFVAYFADGNKQQDREPVFSEELGLAIEKLKDGFTLQGLWEVMS [D16A] | with no effect
7 | MSVLDALWEDRDVRFSLSAQQMKTRPGEVLIDCLDSIEDTKGNNGDRGRLLVTNLRILWHSLALSRVNVSVGYNCILNITTRTANSKLRGQTEALYILTKCNSTRFEFIFTNLVPGSPRLFTSVMAVHRAYETSKMYRDFKLRSALIQNKQLRLLPQEHVYDKINGVWNLSSDQGNLGTFFITNVRIVWHANMNDSFNVSIPYLQIRSIKIRDSKFGLALVIESSQQSGGYVLGFKIDPVEKLQESVKEINSLHKVYSASPIFGVDYEMEEKPQPLEALTVEQIQDDVEIDSDGHTDAFVAYFADGNKQQDREPVFSEELGLAIEKLKDGFTLQGLWEVMS [D16S] | disrupting interaction strength
8 | MSVLDALWEDRDVRFKLSAQQMKTRPGEVLIDCLDSIEDTKGNNGDRGRLLVTNLRILWHSLALSRVNVSVGYNCILNITTRTANSKLRGQTEALYILTKCNSTRFEFIFTNLVPGSPRLFTSVMAVHRAYETSKMYRDFKLRSALIQNKQLRLLPQEHVYDKINGVWNLSSDQGNLGTFFITNVRIVWHANMNDSFNVSIPYLQIRSIKIRDSKFGLALVIESSQQSGGYVLGFKIDPVEKLQESVKEINSLHKVYSASPIFGVDYEMEEKPQPLEALTVEQIQDDVEIDSDGHTDAFVAYFADGNKQQDREPVFSEELGLAIEKLKDGFTLQGLWEVMS [D16K] | with no effect
9 | MSVLDALWEDRDVRFELSAQQMKTRPGEVLIDCLDSIEDTKGNNGDRGRLLVTNLRILWHSLALSRVNVSVGYNCILNITTRTANSKLRGQTEALYILTKCNSTRFEFIFTNLVPGSPRLFTSVMAVHRAYETSKMYRDFKLRSALIQNKQLRLLPQEHVYDKINGVWNLSSDQGNLGTFFITNVRIVWHANMNDSFNVSIPYLQIRSIKIRDSKFGLALVIESSQQSGGYVLGFKIDPVEKLQESVKEINSLHKVYSASPIFGVDYEMEEKPQPLEALTVEQIQDDVEIDSDGHTDAFVAYFADGNKQQDREPVFSEELGLAIEKLKDGFTLQGLWEVMS [D16E] | with no effect

Source: IntAct's records for PubMed 29039417
